# According to publication PMC7305169, “High flavivirus structural plasticity demonstrated by a non-spherical morphological variant” (Nature Communications, 2020):
# B1: Fab C10 (Fab, V domains shown)
# VH: EVQLVESGAEVKKPGASVKVSCKASGYTFTSYAMHWVRQAPGQRLEWMGWINAGNGNTKYSQKFQDRVTITRDTSASTAYMELSSLRSEDTAIYYCARDKVDDYGDYWFPTLWYFDYWGQGTLVTVS
# VL: ALTQPASVSGSPGQSITISCTGTSSDVGGFNYVSWFQQHPGKAPKLMLYDVTSRPSGVSSRFSGSKSGNTASLTISGLQAEDEADYYCSSHTSRGTWVFGGGTKLTVL
# notes: Only the variable regions of the Fab were fitted into the maps; also called antibody C10; Fab fragment of antibody C10; source: monoclonal antibody C10 obtained from Gavin Screaton; Fab made from IgG with papain conjugated resins, purified (anion-exchange, gel filtration)
# Biological target: T1, ZIKV envelope (E) protein, strain H/PF/2013, on purified virus particles (Zika virus (ZIKV-H/PF/2013))
# T1 construct: envelope (E) protein of Zika virus strain H/PF/2013, cut product of the viral polyprotein, membrane-anchored on the virus particle; the entire E protein with its transmembrane regions was fitted; Stood on whole virus particles (catSP after 37 °C with Fab C10) together with the M protein and the lipid membrane
# Assay: cryoEM micrographs and 2D averages; Fab mixed with purified virus at a molar ratio of 1.5 Fab to E protein; Fab added before exposure to 37 °C (DENV3-CH53489, ZIKV) or after the virus was incubated at 37 °C (DENV3-CH53489); binding seen as spiky surface and Fab density in 2D averages
# Conditions: both partners purified
binder,measurement,value
B1,binding result,binds
